The source of these data is patent US20150284477.

Data set [1] concerns the target T1, LPETG (SEQ ID NO: 4) substrate (not fully specified).
T1 chain: LPETG

A further data set has as its target T2, GGG-COOH.
T2 chain: GGG

In data set [2] the target is T3, LAETG motif-bearing substrate (not fully specified).
T3 chain: LAETG

Data set [3] has as its target LPESG motif-bearing substrate.

B1: P94S/D160N/K196T (protein)
chain: MQAKPQIPKDKSKVAGYIEIPDADIKEPVYPGPATSEQLNRGVSFAEENESLDDQNISIAGHTFIDRPNYQFTNLKAAKKGSMVYFKVGNETRKYKMTSIRNVKPTDVEVLDEQKGKDKQLTLITCDDYNEKTGVWETRKIFVATEVKLEHHHHHH
With B1, the Km LPETG in data set [1] is 560 µM. Further, the Km GGG-COOH with GGG-COOH stood at 1830 ± 330 µM.

B2: srtA P94S (protein)
chain: MQAKPQIPKDKSKVAGYIEIPDADIKEPVYPGPATSEQLNRGVSFAEENESLDDQNISIAGHTFIDRPNYQFTNLKAAKKGSMVYFKVGNETRKYKMTSIRDVKPTDVEVLDEQKGKDKQLTLITCDDYNEKTGVWEKRKIFVATEVKLEHHHHHH
Consider B2, for which, in data set [1], the Km LPETG turned out to be 2500 µM. Besides, the Km GGG-COOH in the data set with GGG-COOH was 650 µM.

B3: srtA K196T (protein)
chain: MQAKPQIPKDKSKVAGYIEIPDADIKEPVYPGPATPEQLNRGVSFAEENESLDDQNISIAGHTFIDRPNYQFTNLKAAKKGSMVYFKVGNETRKYKMTSIRDVKPTDVEVLDEQKGKDKQLTLITCDDYNEKTGVWETRKIFVATEVKLEHHHHHH
Turning to B3, in data set [1], the Km LPETG was determined as 3300 µM. In addition, the Km GGG-COOH with GGG-COOH turned out to be 200 µM.

B4: srtA D160N (protein)
chain: MQAKPQIPKDKSKVAGYIEIPDADIKEPVYPGPATPEQLNRGVSFAEENESLDDQNISIAGHTFIDRPNYQFTNLKAAKKGSMVYFKVGNETRKYKMTSIRNVKPTDVEVLDEQKGKDKQLTLITCDDYNEKTGVWEKRKIFVATEVKLEHHHHHH
Regarding B4, the Km LPETG in data set [1] worked out at 3700 µM. The Km GGG-COOH with GGG-COOH was 330 µM.

B5: P94S/D160N/D165A/K196T (protein)
chain: MQAKPQIPKDKSKVAGYIEIPDADIKEPVYPGPATSEQLNRGVSFAEENESLDDQNISIAGHTFIDRPNYQFTNLKAAKKGSMVYFKVGNETRKYKMTSIRNVKPTAVEVLDEQKGKDKQLTLITCDDYNEKTGVWETRKIFVATEVKLEHHHHHH
Consider B5, for which, in data set [1], the Km LPETG was 170 µM and the “LPETG recognition (Km LPETG) against wild type SrtA” value was 45-fold improved LPETG (SEQ ID NO: 4) recognition. Further, the Km GGG-COOH in the data set with GGG-COOH stood at 4800 ± 700 µM.

B6: P94S/D165A (clone 4.3) (protein)
chain: MQAKPQIPKDKSKVAGYIEIPDADIKEPVYPGPATSEQLNRGVSFAEENESLDDQNISIAGHTFIDRPNYQFTNLKAAKKGSMVYFKVGNETRKYKMTSIRDVKPTAVEVLDEQKGKDKQLTLITCDDYNEKTGVWEKRKIFVATEVKLEHHHHHH
For B6, the Km LPETG in data set [1] was 1100 µM. Moreover, the Km GGG-COOH with GGG-COOH was 1700 ± 400 µM.

B7: D160N/K190E/K196T (clone 4.2) (protein)
chain: MQAKPQIPKDKSKVAGYIEIPDADIKEPVYPGPATPEQLNRGVSFAEENESLDDQNISIAGHTFIDRPNYQFTNLKAAKKGSMVYFKVGNETRKYKMTSIRNVKPTDVEVLDEQKGKDKQLTLITCDDYNEETGVWETRKIFVATEVKLEHHHHHH
B7: the Km LPETG in data set [1] came out at 1600 µM. The Km GGG-COOH with GGG-COOH was 1200 ± 200 µM.

B8: wild type S. aureus sortase A (truncated, His tagged) (protein)
chain: MQAKPQIPKDKSKVAGYIEIPDADIKEPVYPGPATPEQLNRGVSFAEENESLDDQNISIAGHTFIDRPNYQFTNLKAAKKGSMVYFKVGNETRKYKMTSIRDVKPTDVEVLDEQKGKDKQLTLITCDDYNEKTGVWEKRKIFVATEVKLEHHHHHH
B8: in data set [1], the Km LPETG was 7600 µM and the Km, LxExG (uM); column wt/wt was determined as 5180 µM. Further, in the data set with GGG-COOH, the Km GGG-COOH came out at 140 µM and the Km, GGG (uM); column wt/wt was found to be 291 µM.

B9: srtA D165A (protein)
chain: MQAKPQIPKDKSKVAGYIEIPDADIKEPVYPGPATPEQLNRGVSFAEENESLDDQNISIAGHTFIDRPNYQFTNLKAAKKGSMVYFKVGNETRKYKMTSIRDVKPTAVEVLDEQKGKDKQLTLITCDDYNEKTGVWEKRKIFVATEVKLEHHHHHH
For B9, the Km LPETG in data set [1] is 3600 µM. Besides, the Km GGG-COOH with GGG-COOH was determined as 1000 ± 480 µM.

B10: P94S/D160N/D165A (protein)
chain: MQAKPQIPKDKSKVAGYIEIPDADIKEPVYPGPATSEQLNRGVSFAEENESLDDQNISIAGHTFIDRPNYQFTNLKAAKKGSMVYFKVGNETRKYKMTSIRNVKPTAVEVLDEQKGKDKQLTLITCDDYNEKTGVWEKRKIFVATEVKLEHHHHHH
Consider B10, for which the Km LPETG in data set [1] came out at 510 µM. For the same protein, in the data set with GGG-COOH, the Km GGG-COOH amounted to 1750 ± 250 µM.

B11: sortase 2A.3.5 (protein)
chain: QAKPQIPKDKSKVAGYIEIPDADIKEPVYPGPATREQLNRGVSFAEENESLDDQNISIAGHTFIDRPNYQFTNLKAAKKGSMVYFKVGNETRKYKMTSIRNVRPTAVEILDEQKGKDKQLTLFTCDDYNEETGVWETRKIFVATEVK
For B11, in data set [1], the Km, LxExG (uM); column 2A.3.5/wt was 4110 µM. In data set [2], the Km, LxExG (uM); column 2A.3.5/2A came to 7160 µM.

B12: sortase 2A.6B (protein)
chain: QAKPQIPKDKSKVAGYIEIPDADIKEPVYPGPATREQLNKGVSFHEENESLDDQNISIAGHTFIDRPNYQFTNLKAAKVGSMVYFKVGNETRKYKMTSIRKVRPTAVEVLDEQKGKDKQLTLVTCDDYNEETGVWETRKIFVATEVK
On to B12, for which the Km, GGG (uM); column 2A.6B/2A with GGG-COOH stood at 642 µM. Moreover, the Km, LxExG (uM); column 2A.6B/2A in data set [2] is 310 µM.

B13: sortase 2A.6C (protein)
chain: QAKPQIPKDKSKVAGYIEIPDADIKEPVYPGPATREQLNRGVSFHEENESLDDQNISIAGHTFIDRPNYQFTNLKAAKPGSMVYFKVGNETRIYKMTSIRKVRPTAVEVLDEQKGKDKQLTLVTCDDYNEETGVWETRKIFVATEVK
As to B13, the Km, LxExG (uM); column 2A.6C/wt in data set [1] amounted to 1980 µM. In addition, the Km, GGG (uM); column 2A.6C/2A with GGG-COOH is 642 µM. Besides, the Km, LxExG (uM); column 2A.6C/2A in data set [2] stood at 343 µM.

B14: sortase 2A.5 (protein)
chain: QAKPQIPKDKSKVAGYIEIPDADIKEPVYPGPATREQLNHGVSFHEENESLDDQNISIAGHTFIDRPNYQFTNLKAAKIGSMVYFKVGNETRKYKMTSIRNVRPTAVEVLDEQKGKDKQLTLVTCDDYNEETGVWETRKIFVATEVK
For the protein B14, the Km, LxExG (uM); column 2A.5/wt in data set [1] was 4900 µM. For the same protein, the Km, GGG (uM); column 2A.5/2A with GGG-COOH came to 2810 µM. Further, in data set [2], the Km, LxExG (uM); column 2A.5/2A was determined as 433 µM.

B15: sortase 4S.6C (protein)
chain: QAKPQIPKDKSKVAGYIEIPDADIKEPVYPGPATREQLDRGVSFVEENESLDDQNISITGHTAIDRPNYQFTNLRAAKKGSMVYFKVGNETRKYKMTSIRNVKPTAVEVLDEQKGKDKQLTLVTCDDYNFETGVWETRKIFVATEVK
Take B15: in data set [1], the Km, LxExG (uM); column 4S.6C/wt is 16.1 µM. In addition, the Km, LxExG (uM); column 4S.6C/4S in data set [3] amounted to 156 µM. Moreover, in the data set with GGG-COOH, the Km, GGG (uM); column 4S.6C/4S was determined as 36000 µM.

B16: sortase 4S.6A (protein)
chain: QAKPQIPKDKSKVAGYIEIPDADIKEPVYPGPATREQLDRGVSFVEENESLDDQNISITGHTAIDRPNYQFTNLGAAKKGSMVYFKVGNETRKYKMTSIRNVKPTAVEVLDEQKGKDKQLTLVTCDDYNVETGVWETRKIFVATEVK
For the protein B16, the Km, LxExG (uM); column 4S.6A/wt in data set [1] was found to be 1290 µM. Besides, the Km, LxExG (uM); column 4S.6A/4S in data set [3] worked out at 102 µM. The Km, GGG (uM); column 4S.6A/4S with GGG-COOH is 4950 µM.

B17: sortase 4S.5 (protein)
chain: QAKPQIPKDKSKVAGYIEIPDADIKEPVYPGPATREQLDRGVSFVEENESLDDQNISITGHTAIDRPNYQFTNLRAAKKGSMVYFKVGNETRKYKMTSIRNVKPTAVEVLDEQKGKDKQLTLVTCDDYNEETGVWETRKIFVATEVK
As for B17, the Km, LxExG (uM); column 4S.5/wt in data set [1] came to 12.2 µM. Also, the Km, LxExG (uM); column 4S.5/4S in data set [3] came to 76 µM. Also, the Km, GGG (uM); column 4S.5/4S in the data set with GGG-COOH was 26700 µM.

B18: sortase 4S.6B (protein)
chain: QAKPQIPKDKSKVAGYIEIPDADIKEPVYPGPATREQLDRGVSFVEENESLDDQNISISGHTAIDRPNYQFTNLPAAKKGSMVYFKVGNETRKYKMTSIRNVKPTAVEVLDEQKGKDKQLTLVTCDDYNPETGVWETRKIFVATEVK
As for B18, the Km, LxExG (uM); column 4S.6B/wt in data set [1] came out at 238 µM. For the same protein, in data set [3], the Km, LxExG (uM); column 4S.6B/4S came out at 312 µM. In addition, in the data set with GGG-COOH, the Km, GGG (uM); column 4S.6B/4S was 15700 µM.

B19: sortase 4S.3.5 (protein)
chain: QAKPQIPKDKSKVAGYIEIPDADIKEPVYPGPATREQLNRGVSFTEENESLDDQNISITGHTFIDRPNYQFTNLKAAKKGSMVYFKVGNETRKYKMTSIRNVKPTAVEVLDEQKGKDKQLTLVTCDDYNEETGVWETRKIFVATEVK
Consider B19, for which the Km, LxExG (uM); column 4S.3.5/4S in data set [3] is 7310 µM.

B20: sortase 4S.4 (protein)
chain: QAKPQIPKDKSKVAGYIEIPDADIKEPVYPGPATREQLNRGVSFVEENESLDDQNISITGHTSIDRPNYQFTNLKAAKKGSMVYFKVGNETRKYKMTSIRNVKPTAVEVLDEQKGKDKQLTLVTCDDYNEETGVWETRKIFVATEVK
In the case of B20, in data set [1], the Km, LxExG (uM); column 4S.4/wt worked out at 339 µM. In addition, in data set [3], the Km, LxExG (uM); column 4S.4/4S was found to be 1410 µM.

B21: sortase 2A.6A (protein)
chain: QAKPQIPKDKSKVAGYIEIPDADIKEPVYPGPATREQLNRGVSFHEENESLDDQNISIAGHTFIDRPNYQFTNLKAAKVGSMVYFKVGNETRKYKMTSIRNVRPTAVEVLDEQKGKDKQLTLVTCDDYNEETGVWETRKIFVATEVK
As for B21, the Km, LxExG (uM); column 2A.6A/wt in data set [1] stood at 3290 µM. The Km, GGG (uM); column 2A.6A/2A with GGG-COOH stood at 1040 µM. In data set [2], the Km, LxExG (uM); column 2A.6A/2A is 608 µM.

B22: sortase 2A.4 (protein)
chain: QAKPQIPKDKSKVAGYIEIPDADIKEPVYPGPATREQLNRGVSFHEENESLDDQNISIAGHTFIDRPNYQFTNLKAAKKGSMVYFKVGNETRKYKMTSIRNVRPTAVEILDEQKGKDKQLTLVTCDDYNEETGVWETRKIFVATEVK
Regarding B22, the Km, LxExG (uM); column 2A.4/wt in data set [1] was 11700 µM. Moreover, in data set [2], the Km, LxExG (uM); column 2A.4/2A was determined as 3250 µM.
